Results on four molecules are retold here after patent US12221480.

Experiment [1] concerns the target anti-CD20 (Rituxan) chimeric antigen receptor ACT2. In words: flow cytometry, panel Donor 4 (δ3-23): cells transduced with the anti-CD20 CAR ACT2, stained with rat anti-Rituximab-FITC; no % sign is printed.
For experiment [2] the target is unchanged. The experiment in a line: flow cytometry, panel Donor 4 (δ3-08): cells transduced with the anti-CD20 CAR ACT2, stained with rat anti-Rituximab-FITC; no % sign is printed.
For experiment [3] the target is unchanged. The experiment in a line: flow cytometry, panel Donor 3 (δ3-23): cells transduced with the anti-CD20 CAR ACT2, stained with rat anti-Rituximab-FITC; no % sign is printed.
The target in experiment [4] is γ2δ3 TCR-hFc mutant S7 (D57N, R65Q in the Vδ3 chain) (human) (UniProt B7Z8K6). In words: Luminex beads; TCR-hFc captured by goat anti-human Fc; antibody titrated.
Experiment [5] deals with γ2δ3 TCR-hFc mutant S8 (K79L, E18Q, H88F in the Vδ3 chain) (human) (UniProt B7Z8K6). The description is as above.
The target in experiment [6] is γ2δ3 TCR-hFc mutant S10 (K3A, K79L, H88T in the Vδ3 chain) (human) (UniProt B7Z8K6). The experiment is described as above.
The target of experiment [7] is γ2δ3 TCR-hFc mutant S9 (E67Q, D70N, R75Q, R95Q, E97Q in the Vδ3 chain) (human) (UniProt B7Z8K6). The description is as above.
The target in experiment [8] is γ2δ3 TCR-hFc mutant S11 (K79L, L82K, H88F in the Vδ3 chain) (human) (UniProt B7Z8K6). The experiment is described as above.
The target in experiment [9] is γ2δ3 TCR-hFc mutant S5 (D70N, E67Q in the Vδ3 chain) (human) (UniProt B7Z8K6). Described as above.
Experiment [10] concerns the target γ2δ3 TCR-hFc mutant S6 (R75Q, R95Q in the Vδ3 chain) (human) (UniProt B7Z8K6). The description is as above.
For experiment [11], the target named is γ2δ3 TCR-hFc mutant S3 (K79L, H88F in the Vδ3 chain) (human) (UniProt B7Z8K6). Described as above.
Experiment [12] has as its target γ2δ3 TCR-hFc mutant S4 (E18Q in the Vδ3 chain) (human) (UniProt B7Z8K6). Described as above.
For experiment [13], the target named is γ2δ3 TCR-hFc mutant S2 (D26N, K85L in the Vδ3 chain) (human) (UniProt B7Z8K6). The description is as above.
For experiment [14], the target named is γ2δ3 TCR-hFc mutant S1 (D10N in the Vδ3 chain) (human) (UniProt B7Z8K6). The description is as above.
In experiment [15] the target is recombinant human soluble γ2 δ3TCR-FC (wild type) (human) (UniProt B7Z8K6). The experiment is described as above.
The target is the same in experiment [16]. The experiment in a line: Octet, γ2δ3TCR-hFc captured on anti-human Fc biosensor; row antibody δ3-31 taken as first (saturating), column antibody as second; 5 µg/mL each.
Experiment [17] has the same target. In words: Octet, γ2δ3TCR-hFc captured on anti-human Fc biosensor; row antibody δ3-08 taken as first (saturating), column antibody as second; 5 µg/mL each; self pair.
Experiment [18] shares this target. The experiment in a line: Octet, γ2δ3TCR-hFc captured on anti-human Fc biosensor; row antibody δ3-58 taken as first (saturating), column antibody as second; 5 µg/mL each.
Experiment [19] has the same target. The experiment in a line: Octet, γ2δ3TCR-hFc captured on anti-human Fc biosensor; row antibody δ3-23 taken as first (saturating), column antibody as second; 5 µg/mL each.
Experiment [20] has the same target. The experiment in a line: Octet, γ2δ3TCR-hFc captured on anti-human Fc biosensor; row antibody δ3-08 taken as first (saturating), column antibody as second; 5 µg/mL each.
Experiment [21] has as its target γ2δ3 TCR-hFc mutant S8 (K79L, E18Q, H88F in the Vδ3 chain) (human) (UniProt B7Z8K6). The experiment in a line: Luminex beads; TCR-hFc captured by goat anti-human Fc; antibody titrated; extrapolated value, no saturation achieved.
The target in experiment [22] is γ2δ3 TCR-hFc mutant S10 (K3A, K79L, H88T in the Vδ3 chain) (human) (UniProt B7Z8K6). The description is as above.
Experiment [23] has as its target γ2δ3 TCR-hFc mutant S11 (K79L, L82K, H88F in the Vδ3 chain) (human) (UniProt B7Z8K6). The description is as above.
The target in experiment [24] is γ2δ3 TCR-hFc mutant S3 (K79L, H88F in the Vδ3 chain) (human) (UniProt B7Z8K6). The experiment is described as above.
The target of experiment [25] is recombinant human soluble γ2 δ3TCR-FC (wild type) (human) (UniProt B7Z8K6). The experiment in a line: Octet, γ2δ3TCR-hFc captured on anti-human Fc biosensor; row antibody δ3-58 taken as first (saturating), column antibody as second; 5 µg/mL each; self pair.
The target is the same in experiment [26]. In words: Octet, γ2δ3TCR-hFc captured on anti-human Fc biosensor; row antibody δ3-42 taken as first (saturating), column antibody as second; 5 µg/mL each.
The target of experiment [27] is γ2δ3 TCR-hFc mutant S9 (E67Q, D70N, R75Q, R95Q, E97Q in the Vδ3 chain) (human) (UniProt B7Z8K6). The experiment in a line: Luminex beads; TCR-hFc captured by goat anti-human Fc; antibody titrated; extrapolated value, no saturation achieved.
For experiment [28], the target named is recombinant human soluble γ2 δ3TCR-FC (wild type) (human) (UniProt B7Z8K6). In words: Octet, γ2δ3TCR-hFc captured on anti-human Fc biosensor; row antibody δ3-42 taken as first (saturating), column antibody as second; 5 µg/mL each; self pair.

As to aRitxmab-FITC (antibody), the values for the percent of cells in the CAR+ gate in [1], in experiment [2] and in [3] were 73.5%, 70.7% and 83.1%, respectively.

B1: δ3-08 (antibody, V domains shown)
VH: EEKLEESGGGLVQPGGSMKLSCVASGFIFSIYWMNWVRQSPEKGLEWVGQIRLKSDNYATHYAESVKGRFTISRDDSKSSVYLQMNNLRAEDTGIYYCMYYGSSYERFAYWGQGTLVTVSA
VL: DIQMIQSPASLSVSVGETVTITCRASENIYSNLAWYQQKQGKSPQLLVYVATKLADGVPSRFSGSGSGTQYSLKINSLQSEDFGSYYCQHFWGTPPWTFGGGTKLEIK
For the molecule B1, the EC50 in experiment [4] came out at 0.07 nM; in experiment [5], 0.04 nM; in [6], 2.5 nM; in experiment [7], 0.07 nM; in experiment [8], 0.03 nM; in [9], 0.05 nM. Besides, the EC50 was 0.06 nM in experiment [10]; 0.05 nM in experiment [11]; 0.06 nM in experiment [12]; 0.07 nM in [13]; 0.08 nM in [14]; 0.06 nM in experiment [15]. Also, the paired-competition value (Octet signal of the second antibody per paragraph 256) stood at 0.24 in [16], 0.16 in [17], 0.04 in experiment [18] and 0.04 in experiment [19].

B2: δ3-58 (antibody, V domains shown)
VH: EVKLVESGGGLVQPGGSLKLSCAASGFTFSSYAMSWVRQTPEKRLEWVAYIRDGGGGTYYPDTVEGRFTISRDNAKNTLYLQMSSLKSEDTAMYYCARHPPMNDWFLYWGQGTLVTVSA
VL: DIQMTQSPASLSVSVGETVTITCRASENIYSHLAWYQQKQGKSPQLLVYAATNLADGVPSRFSGSGSGTQYSLKINSLQSEDFGSYYCQHFWGTPYTFGGGTKLEIKR
Regarding B2, the EC50 in experiment [4] is 0.04 nM; in experiment [7], 0.05 nM; in experiment [9], 0.02 nM; in experiment [10], 0.02 nM; in experiment [12], 0.02 nM; in experiment [13], 0.03 nM. In addition, the EC50 in experiment [14] is 0.02 nM; in experiment [15], 0.03 nM; in experiment [21] it was 3370 nM; in [22], 336 nM; in experiment [23], 136 nM; in experiment [24], 508 nM. Also, the paired-competition value (Octet signal of the second antibody per paragraph 256) in [16] is 0.37; in experiment [20], 0.22; in [25] it was 0.03; in [26], 0.06; in experiment [19], 0.03.

B3: δ3-42 (antibody, V domains shown)
VH: DVQLQESGPDLVKPSQSLSLTCTVTGYSITSGYNWHWIRQFPGNKLEWMGYIHYSGNTDYNPSLRSRISITRDTSKNQFFLHLNSVPTEDTATYYCARSGITTDWYFDVWGAGTTVTVSS
VL: QIVLSQSPAILSASPGEKVTMTCRASSSVNYMHWYQQKPGSSPKPWIYATSNLASGVPARFSGSGSGTSYSLTISKVEAEDAATYYCQQWSSHQPTFGAGTKLELK
On to B3, for which the EC50 in [4] was found to be 0.15 nM; in experiment [9], 0.08 nM; in experiment [10] it was 0.13 nM; in experiment [12] it was 0.05 nM; in [13] it was 0.17 nM; in experiment [14], 0.07 nM. The EC50 in experiment [15] was 0.05 nM; in experiment [21], 258 nM; in experiment [22], 449 nM; in experiment [27] it was 49.3 nM; in [23], 199 nM; in experiment [24], 106 nM. The paired-competition value (Octet signal of the second antibody per paragraph 256) in experiment [16] worked out at 0.35; in [20], 0.21; in [18], 0.03; in experiment [28], 0.04; in [19], 0.04.
